Target: tau (total tau), endogenous mouse protein in brain extracts (mouse) (UniProt P10637)
Test: immunoprecipitation with antibody to total tau, immunoblot for Chip; 8 months old against 6 weeks old mice

tau (total tau), endogenous mouse protein in brain extracts (mouse), sequence (P10637 other isoform, or with tags, fused parts or gaps limits assumed): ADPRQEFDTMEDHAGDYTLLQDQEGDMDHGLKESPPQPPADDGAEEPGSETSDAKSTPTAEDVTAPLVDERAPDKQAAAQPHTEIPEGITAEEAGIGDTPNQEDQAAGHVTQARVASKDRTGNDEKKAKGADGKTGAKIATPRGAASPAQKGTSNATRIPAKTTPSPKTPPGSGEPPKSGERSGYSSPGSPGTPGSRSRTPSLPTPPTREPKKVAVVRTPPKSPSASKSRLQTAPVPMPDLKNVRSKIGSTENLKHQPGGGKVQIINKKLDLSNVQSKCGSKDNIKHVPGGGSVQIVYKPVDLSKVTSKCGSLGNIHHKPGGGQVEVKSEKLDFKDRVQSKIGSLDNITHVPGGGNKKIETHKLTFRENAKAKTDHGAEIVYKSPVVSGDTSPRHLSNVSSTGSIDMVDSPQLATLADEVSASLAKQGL

- fold amount of Chip co-immunoprecipitated with tau in aged brain extracts: 2 fold
Substance: Chip (C-terminal Hsp70-interacting protein) ubiquitin ligase, endogenous mouse protein in brain extracts (from UniProt Q9WUD1 1-304) (enzyme)
